# According to US20150174237A1 (HENRY M JACKSON FOUNDATION FOR THE ADVANCEMENT OF MILITARY …, published 2015):
# T1: mouse B cell CD21 (on mouse B cells) (mouse, UniProt P19070 12-1025)
# T1 construct: whole, on cells
# T1 sequence: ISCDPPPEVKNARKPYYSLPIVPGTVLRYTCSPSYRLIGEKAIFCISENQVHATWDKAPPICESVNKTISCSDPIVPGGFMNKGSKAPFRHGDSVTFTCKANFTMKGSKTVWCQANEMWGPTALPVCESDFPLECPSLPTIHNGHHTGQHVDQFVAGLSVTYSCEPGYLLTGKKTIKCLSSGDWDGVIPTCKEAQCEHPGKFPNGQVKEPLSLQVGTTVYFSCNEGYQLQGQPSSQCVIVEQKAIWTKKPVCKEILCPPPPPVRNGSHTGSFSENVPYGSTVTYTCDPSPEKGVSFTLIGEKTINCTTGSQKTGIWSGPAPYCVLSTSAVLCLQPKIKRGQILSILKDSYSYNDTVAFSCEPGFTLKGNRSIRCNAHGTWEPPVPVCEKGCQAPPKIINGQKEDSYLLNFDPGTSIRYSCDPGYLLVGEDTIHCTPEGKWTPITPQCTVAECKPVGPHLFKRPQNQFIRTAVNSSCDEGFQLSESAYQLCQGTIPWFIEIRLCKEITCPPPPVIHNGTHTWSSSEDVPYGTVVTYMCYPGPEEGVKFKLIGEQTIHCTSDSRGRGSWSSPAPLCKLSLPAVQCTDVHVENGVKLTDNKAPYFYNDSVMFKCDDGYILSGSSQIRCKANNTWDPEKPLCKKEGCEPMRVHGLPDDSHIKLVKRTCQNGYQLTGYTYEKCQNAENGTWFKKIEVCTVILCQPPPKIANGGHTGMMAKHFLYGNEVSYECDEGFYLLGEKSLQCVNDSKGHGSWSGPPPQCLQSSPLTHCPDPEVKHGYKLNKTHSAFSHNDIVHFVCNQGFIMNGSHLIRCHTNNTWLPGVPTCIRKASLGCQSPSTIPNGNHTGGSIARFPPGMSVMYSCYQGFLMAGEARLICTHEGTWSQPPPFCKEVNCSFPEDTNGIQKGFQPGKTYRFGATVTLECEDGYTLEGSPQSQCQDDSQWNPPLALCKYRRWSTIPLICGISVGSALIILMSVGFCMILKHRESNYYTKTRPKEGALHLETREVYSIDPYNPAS
# B1: monomeric gp350 (truncated EBV gp350, amino acids 1-470, with His6 tag) (ligand)
# chain: MEAALLVCQYTIQSLIHLTGEDPGFFNVEIPEFPFYPTCNVCTADVNVTINFDVGGKKHQLDLDFGQLTPHTKAVYQPRGAFGGSENATNLFLLELLGAGELALTMRSKKLPINVTTGEEQQVSLESVDVYFQDVFGTMWCHHAEMQNPVYLIPETVPYIKWDNCNSTNITAVVRAQGLDVTLPLSLPTSAQDSNFSVKTEMLGNEIDIECIMEDGEISQVLPGDNKFNITCSGYESHVPSGGILTSTSPVATPIPGTGYAYSLRLTPRPVSRFLGNNSILYVFYSGNGPKASGGDYCIQSNIVFSDEIPASQDMPTNTTDITYVGDNATYSVPMVTSEDANSPNVTVTAFWAWPNNTETDFKCKWTLTSGTPSGCENISGAFASNRTFDITVSGLGTAPKTLIITRTATNATTTTHKVIFSKAPESTTTSPTLNTTGFADPNTTTGLPSSTHVPTNLTAPASTGPTVSTHHHHHH
# Target: T1, mouse B cell CD21 (on mouse B cells)
# Test: not described (own observation on mouse B cells)
binder,measurement,value
B1,binding result,no binding
